Results reported in patent US20240307455A1, “COMPOSITIONS, DEVICES AND METHODS FOR TREATING IMMUNE-MEDIATED INFLAMMATORY DISEASES” (SIGILON THERAPEUTICS, INC., priority 2021, published 2024).
Values belong to the molecule of their own block, whether it stands above or below them.

Assays:
[1] = in vivo; cited from earlier work
IL-22 = target: T1, IL-22 (Homo sapiens, UniProt Q9GZX6); test: Inhibition of IL22 activity in Col205 cells; assay type: cell-based; details: ARPE IL-22 supernatant 1%; rhIL22BP 100, 50, 25 and 1 ng/ml
T1 construct: made in house; host or cells: genetically modified ARPE-19 cells; filter-sterilized culture supernatant, not purified
T1 sequence (Q9GZX6 34-179): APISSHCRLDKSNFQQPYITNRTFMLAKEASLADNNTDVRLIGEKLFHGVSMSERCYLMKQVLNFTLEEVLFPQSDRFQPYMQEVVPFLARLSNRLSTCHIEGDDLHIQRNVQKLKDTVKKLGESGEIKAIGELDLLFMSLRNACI
Description: Inhibition of IL22 activity in Col205 cells. Col205 cells were seeded at a density of 2×10^5 cells/well in a 96 well plate and starved in serum free media overnight. The serum free media was removed and the cells were treated with 190 ul of recombinant human IL-22 binding protein (rhIL22BP) diluted in RPMI/10% FBS at concentrations of 100, 50, 25 and 1 ng/ml. Filter sterilized supernatant from hIL22-producing ARPE-19 cells (ARPE IL-22) or unmodified ARPE-19 cells (ARPE WT) was diluted 1:5 in RPMI/10% FBS and 10 ul was added to the wells for a final concentration of 1%. The plate was incubated overnight at 37 C, 5% CO2 for ˜18 h. The supernatant was transferred to a new 96 well plate and centrifuged.

Colo205 cells = test: Induction of IL-10 production by Colo205 cells (ELISA); assay type: cell-based, human; details: ~18 h incubation
Description: Balb-3T3 cells and ARPE-19 cells were genetically modified to express and secrete murine IL-22 and human IL-22, respectively. The ability of the genetically modified ARPE-19 cells to produce active hIL-22 in vitro was assessed by the induction of IL-10 production by Colo205 cells, which are derived from human colonic epithelium.
Generation of IL-22 response curve. Col205 cells were seeded at a density of 2×10^5 cells/well in a 96 well plate and starved in serum free media overnight. The serum free media was removed from the wells and the cells were treated with rhIL-22 (peprotech Cat #200-22) diluted in RPMI/10% FBS at half log dilutions to generate final concentrations of 1000, 316.46, 100.14, 31.69, 10.02, 3.17, 1 and 0.32 pg/ml. The plate was incubated overnight at 37 C, 5% CO2 for ˜18 h. The supernatant was transferred to a new 96 well plate and centrifuged.
Biological activity of hIL-22 produced by genetically modified ARPE-19 cells. Col205 cells were seeded at a density of 2×10^5 cells/well in a 96 well plate and starved in serum free media overnight. The serum free media was removed and the cells were treated with filter sterilized supernatant from hIL22 producing ARPE-19 cells (ARPE-19 IL-22) or unmodified ARPE-19 cells (ARPE-19 WT) diluted in RPMI/10% FBS at final concentrations of 1%, 0.5%, 0.25% and 0.125%. The plate was incubated overnight at 37 C, 5% CO2 for ˜18 h. […]

Molecule: human IL-10: human IL-10 protein in plasma
half-life of human IL-10 in plasma [1]: about 2 hours

IL-10 production induced by hIL-22 in the presence of rhIL22BP (IL-22): blocked
B1: rhIL22BP: recombinant human IL-22 binding protein, an endogenous and specific IL-22 inhibitor (protein, UniProt Q969J5 22-263, looked up)
Interleukin-22 receptor …: TQSTHESLKPQRVQFQSRNFHNILQWQPGRALTGNSSVYFVQYKIMFSCSMKSSHQKPSGCWQHISCNFPGCRTLAKYGQRQWKNKEDCWGTQELSCDLTSETSDIQEPYYGRVRAASAGSYSEWSMTPRFTPWWETKIDPPVMNITQVNGSLLVILHAPNLPYRYQKEKNVSIEDYYELLYRVFIINNSLEKEQKVYEGAHRAVEIEALTPHSSYCVVAEIYQPMLDRRSQRSEERCVEIP

B2: rhIL-22: rhIL-22 (peprotech Cat #200-22) (protein, UniProt Q9GZX6 34-179, looked up)
Interleukin-22: T1 sequence (Q9GZX6 34-179)
IL-10 production by Colo205 cells (Colo205 cells): induced IL-10 production

B3: hIL-22: human IL-22 in filter sterilized supernatant from hIL22 producing genetically modified ARPE-19 cells (protein, UniProt Q9GZX6 34-179, looked up)
Interleukin-22: T1 sequence (Q9GZX6 34-179)
IL-10 production by Colo205 cells (Colo205 cells): functionally active
